Experimental data published in US20210071114.

T1: FRET substrate GGGFG
T1 chain: GGGFG

T2: FRET substrate GGGLG
T2 chain: GGGLG

T3: FRET substrate GGGSG
T3 chain: GGGSG

T4: FRET substrate GGGYG
T4 chain: GGGYG

T5: FRET-GGGGG (FRET substrate having pentaglycine between Nma and Lys(Dnp))
T5 chain: GGGGG

T6: keratin 10
T6 chain: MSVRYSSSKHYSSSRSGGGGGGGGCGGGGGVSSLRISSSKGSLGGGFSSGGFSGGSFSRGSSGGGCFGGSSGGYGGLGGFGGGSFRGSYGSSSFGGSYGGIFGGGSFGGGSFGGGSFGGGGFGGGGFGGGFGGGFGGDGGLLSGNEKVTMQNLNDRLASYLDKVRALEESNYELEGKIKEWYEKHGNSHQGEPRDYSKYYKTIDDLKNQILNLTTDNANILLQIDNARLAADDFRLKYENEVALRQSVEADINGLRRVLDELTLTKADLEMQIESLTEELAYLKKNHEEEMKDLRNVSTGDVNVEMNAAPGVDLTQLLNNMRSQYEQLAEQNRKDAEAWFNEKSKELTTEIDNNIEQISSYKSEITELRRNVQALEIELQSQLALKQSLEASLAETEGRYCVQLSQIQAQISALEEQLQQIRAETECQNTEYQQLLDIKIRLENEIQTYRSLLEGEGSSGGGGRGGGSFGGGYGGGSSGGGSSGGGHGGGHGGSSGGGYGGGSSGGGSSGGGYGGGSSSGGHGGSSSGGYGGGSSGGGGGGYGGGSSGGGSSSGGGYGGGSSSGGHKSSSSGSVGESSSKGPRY

T7: recombinant loricrin fused with a tag sequence (Recombinant Human Loricrin Protein; Abcam, ab114261)
T7 chain: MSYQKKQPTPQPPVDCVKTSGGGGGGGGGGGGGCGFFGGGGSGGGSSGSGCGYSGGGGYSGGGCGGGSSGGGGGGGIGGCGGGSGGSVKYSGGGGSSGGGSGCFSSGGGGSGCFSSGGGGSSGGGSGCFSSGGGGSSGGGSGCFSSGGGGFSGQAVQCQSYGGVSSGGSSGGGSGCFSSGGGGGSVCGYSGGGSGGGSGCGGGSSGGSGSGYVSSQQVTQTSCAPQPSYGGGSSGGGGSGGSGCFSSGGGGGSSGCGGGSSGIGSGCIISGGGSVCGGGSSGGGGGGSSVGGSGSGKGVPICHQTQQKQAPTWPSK

B1: Las A protein (LasA or LAS) (protein)
chain: APPSNLMQLPWRQGYSWQPNGAHSNTGSGYPYSSFDASYDWPRWGSATYSVVAAHAGTVRVLSRCQVRVTHPSGWATNYYHMDQIQVSNGQQVSADTKLGVYAGNINTALCEGGSSTGPHLHFSLLYNGAFVSLQGASFGPYRINVGTSNYDNDCRRYYFYNQSAGTTHCAFRPLYNPGLAL
B2: β-lytic metalloprotease (beta-lytic metallopeptidase; BLP) (protein)
chain: SPNGLLQFPFPRGASWHVGGAHTNTGSGNYPMSSLDMSRGGGWGSNQNGNWVSASAAGSFKRHSSCFAEIVHTGGWSTTYYHLMNIQYNTGANVSMNTAIANPANTQAQALCNGGQSTGPHEHWSLKQNGSFYHLNGTYLSGYRITATGSSYDTNCSRFYLTKNGQNYCYGYYVNPGPN
B3: Savinase (registered trade name) (SIGMA, P3111) (protein)
chain: AQSVPWGISRVQAPAAHNRGLTGSGVKVAVLDTGISTHPDLNIRGGASFVPGEPSTQDGNGHGTHVAGTIAALNNSIGVLGVAPSAELYAVKVLGASGSGSVSSIAQGLEWAGNNGMHVANLSLGSPSPSATLEQAVNSATSRGVLVVAASGNSGAGSISYPARYANAMAVGATDQNNNRASFSQYGAGLDIVAPGVNVQSTYPGSTYASLNGTSMATPHVAGAAALVKQKNPSWSNVQIRNHLKNTATSLGSTNLYGSGLVNAEAATR
B4: proteinase K (Kanto Chemical Co., Inc., 34076-92) (protein)
chain: AAQTNAPWGLARISSTSPGTSTYYYDESAGQGSCVYVIDTGIEASHPEFEGRAQMVKTYYYSSRDGNGHGTHCAGTVGSRTYGVAKKTQLFGVKVLDDNGSGQYSTIIAGMDFVASDKNNRNCPKGVVASLSLGGGYSSSVNSAAARLQSSGVMVAVAAGNNNADARNYSPASEPSVCTVGASDRYDRRSSFSNYGSVLDIFGPGTSILSTWIGGSTRSISGTSMATPHVAGLAAYLMTLGKTTAASACRYIADTANKGDLSNIPFGTVNLLAYNNYQA
B5: ALE-1 glycylglycine endopeptidase (ALE-1) (protein)
chain: STKVDAPKVEQEAPAKADAPKVEQEAPAKADAPKVEQEAPAKVDAPKVEQEAPAKVDAPKVEQEAPAKADAPKVEQKRTFVREAAQSNHSASWLNNYKKGYGYGPYPLGINGGNHYGVDFFMNVGTPVRAISDGKIVEAGWTNYGGGNEIGLVENDGVHRQWYMHLSKFNVKVGDRVKAGQIIGWSGSTGYSTAPHLHFQRMTNSFSNNTAQDPMPFLKSAGYGSNSTSSSNNNGYKTNKYGTLYKSESASFTANTDIITRLTGPFRSMPQSGVLRKGLTIKYDEVMKQDGHVWVGYNTNSGKRVYLPVRTWNESTGELGPLWGTIK
B6: Alcalase (registered trade name) (SIGMA, P4860) (protein)
chain: AQTVPYGIPLIKADKVQAQGFKGANVKVAVLDTGIQASHPDLNVVGGASFVAGEAYNTDGNGHGTHVAGTVAALDNTTGVLGVAPSVSLYAVKVLNSSGSGSYSGIVSGIEWATTNGMDVINMSLGGASGSTAMKQAVDNAYAKGVVVVAAAGNSGSSGNTNTIGYPAKYDSVIAVGAVDSNSNRASFSSVGAELEVMAPGAGVYSTYPTNTYATLNGTSMASPHVAGAAALILSKHPNLSASQVRNRLSSTATYLGSSFYYGKGLINVEAAAQ
B7: Aeromonas hydrophila proteinase (AhP) (protein)
chain: AGGQFQLPWRQGYSWKANGAHSHTGSGYPYSSIDVSYDWPGWGGATYTVTAANSGTVTVFSRCQVRVTATNGWATNYYHMSGISVRSGDYVAADTPIGTYASNRNEALCEGGSSTGPHLHFSLLYNGVFQSLQGQRLSSYAVNVGASNYDDNCNRFWLYNQRNGQRYCAWQPLYNNGID

Key:
FRET substrate GGGFG = target: T1, FRET substrate GGGFG
FRET substrate GGGLG = target: T2, FRET substrate GGGLG
FRET substrate GGGSG = target: T3, FRET substrate GGGSG
FRET substrate GGGYG = target: T4, FRET substrate GGGYG
[1] = target: T5, FRET-GGGGG (FRET substrate having …)
[2] = target: corneocyte-derived insoluble keratin (insoluble corneum fraction from the human neck)
keratin 10 = target: T6, keratin 10
[3] = target: keratin azure, which uses wool as a raw material (K8500)
[4] = target: keratin solution obtained from human heel corneum
[5] = target: T7, recombinant loricrin fused with a tag …

Protein | Specific activity (U/mg) (FRET substrate GGGFG) | Specific activity (U/mg) (FRET substrate GGGLG) | Specific activity (U/mg) (FRET substrate GGGSG) | Specific activity (U/mg) (FRET substrate GGGYG) | Specific activity (U/mg) [1] [U/mg] | Degradation of corneocyte-derived insoluble keratin, SDS-PAGE (ruby staining) of the supernatant [2] | Cleavage of keratin 10, concluded from SDS-PAGE bands and the mass spectrometry of the BLP sample (keratin 10) | ΔA595 of the supernatant (property of degrading wool keratin) [3] | Enzymatic degradation of keratin, SDS-PAGE (CBB staining) [4] | Mass spectrometry of the SDS-PAGE band of the enzyme-treated solution (keratin 10) | Loricrin-degrading activity, SDS-PAGE and N-terminus sequencing of the remaining bands [5]
B1 | 19 | 10 | 19 | 29 | 19 | A band was detected between the molecular weight marker of 37,000 and the molecular weight marker of 50,000 for all the solutions containing BLP, LasA, and AhP | BLP and other M23A subfamily enzymes cleaved the glycine-rich regions at both ends of the amino acid sequence of keratin 10 | The absorbance of the samples containing Savinase (registered trade name), Alcalase (registered trade name), or proteinase K was increased compared with that of the samples containing BLP, LasA, or AhP | bands were detected between the molecular weight marker of 37,000 and the molecular weight marker of 50,000 | – | –
B2 | 83 | 3 | 231 | 74 | 186 | A band was detected between the molecular weight marker of 37,000 and the molecular weight marker of 50,000 for all the solutions containing BLP, LasA, and AhP | – | The absorbance of the samples containing Savinase (registered trade name), Alcalase (registered trade name), or proteinase K was increased compared with that of the samples containing BLP, LasA, or AhP | bands were detected between the molecular weight marker of 37,000 and the molecular weight marker of 50,000 | the proteins contained in this band region were fragments of keratin 10 | none of the N-terminus amino acid sequences of the bands were the sequence of loricrin, the bands were inferred to be derived from the tag sequence
B3 | – | – | – | – | – | – | – | The absorbance of the samples containing Savinase (registered trade name), Alcalase (registered trade name), or proteinase K was increased compared with that of the samples containing BLP, LasA, or AhP | major bands were lost for the solutions containing Savinase (registered trade name), Alcalase (registered trade name), and proteinase K | – | –
B4 | – | – | – | – | – | – | – | The absorbance of the samples containing Savinase (registered trade name), Alcalase (registered trade name), or proteinase K was increased compared with that of the samples containing BLP, LasA, or AhP | major bands were lost for the solutions containing Savinase (registered trade name), Alcalase (registered trade name), and proteinase K | – | –
B5 | 0 | 0 | 0 | 0 | 3 | – | – | – | degradation of keratin was not observed for the solutions containing M23B subfamily enzymes ALE-1 and lysostaphin | – | –
B6 | – | – | – | – | – | – | – | The absorbance of the samples containing Savinase (registered trade name), Alcalase (registered trade name), or proteinase K was increased compared with that of the samples containing BLP, LasA, or AhP | major bands were lost for the solutions containing Savinase (registered trade name), Alcalase (registered trade name), and proteinase K | – | –
B7 | 51 | 31 | 10 | 98 | 53 | A band was detected between the molecular weight marker of 37,000 and the molecular weight marker of 50,000 for all the solutions containing BLP, LasA, and AhP | BLP and other M23A subfamily enzymes cleaved the glycine-rich regions at both ends of the amino acid sequence of keratin 10 | The absorbance of the samples containing Savinase (registered trade name), Alcalase (registered trade name), or proteinase K was increased compared with that of the samples containing BLP, LasA, or AhP | bands were detected between the molecular weight marker of 37,000 and the molecular weight marker of 50,000 | – | –
